± gives the uncertainty stated by the source.
Assay: self-splicing fitness, log relative to wild type (ln ratio); higher = more splicing; Tetrahymena group I intron in knt gene, E. coli kanamycin selection, DiMSum; sequences stand for … in CUCUCU…GGAGGGAAAAGUUAUCAGGCAUGCACCUGGUAGCUAGUCUUUAAACCAAUAGAUUGCAUCGGUUUAAAAGGCAAGACCGUCAAAUUGCGGGAAAGGGGUCAACAGCCGUUCAGUACCAAGUCUCAGGGGAAACUUUGAGAUGGCCUUGCAAAGGGUAUGGUAAUAAGCUGACGGACAUGGUCCUAACCACGCAGCCAAGUCCUAAGUCAACAGAUCUUCUGUUGAUAUGGAUGCAGUUCACAGACUAAAUGUCGGUCGGGGAAGAUGUAUUCUUCUCAUAAGAUAUAGUCGGACCUCUCCUUAAUGGGAGCUAGCGGAUGAAGUGAUGCAACACUGGAGCCGCUGGGAACUAAUUUGUAUGCGAAAGUAUAUUGAUUAGUUUUGGAGUACUCGUGGUCG
Procedure, shortened: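 DiMSum derived fitness as the error-weighted combination of fold changes across replicates, kanamycin versus no kanamycin, normalised to wild type. E. coli BL21(DE3) held the library, which randomised all eight P1ex-region intron nucleotides within the knt kanamycin-resistance gene on pET-22b(+). Six replicate transformations grew overnight at 37°C or 30°C on LB agar with or without 25 μg/mL kanamycin, also containing 100 μg/mL carbenicillin, 50 μM IPTG and 0.2% rhamnose, and pooled colonies were amplicon-sequenced on an Illumina HiSeq 2500.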

| Sequence | self-splicing fitness (ln) (30 °C) | self-splicing fitness (ln) (37 °C) |
| --- | --- | --- |
| UCCAAGCAAUAUUACGUAAU | -1.94 ± 0.11 | -0.725 ± 0.14 |
| UCCAAGCAAUAUUACGUACC | -2.68 ± 0.19 | -2.18 ± 0.26 |
| UCCAAGCAAUAUUACGUCAU | -3.09 ± 0.14 | -1.39 ± 0.11 |
| UCCAAGCAAUAUUACGUGAC | -3.7 ± 0.3 | -3.17 ± 0.35 |
| UCCCAGCAAUAUUACGAAAA | -2.38 ± 0.2 | -0.834 ± 0.18 |
| UCCCAGCAAUAUUACGAACG | -2.94 ± 0.31 | -2.39 ± 0.29 |
| UCCCAGCAAUAUUACGAAUA | -2.11 ± 0.1 | -1.42 ± 0.11 |
| UCCCAGCAAUAUUACGACCC | -2.89 ± 0.31 | -2.44 ± 0.35 |
| UCCCAGCAAUAUUACGAGCU | -3.05 ± 0.17 | -2.18 ± 0.2 |
| UCCCAGCAAUAUUACGAUAU | -3.15 ± 0.18 | -1.74 ± 0.22 |
| UCCCAGCAAUAUUACGAUGA | -0.0138 ± 0.055 | 0.23 ± 0.069 |
| UCCCAGCAAUAUUACGCAAG | -3.45 ± 0.16 | -2.69 ± 0.21 |
| UCCCAGCAAUAUUACGCACA | -1 ± 0.071 | -0.318 ± 0.095 |
| UCCCAGCAAUAUUACGCACC | – | -1.21 ± 0.35 |
| UCCCAGCAAUAUUACGCCCA | -1.5 ± 0.18 | -0.396 ± 0.14 |
| UCCCAGCAAUAUUACGCUAC | – | -2.27 ± 0.32 |
| UCCCAGCAAUAUUACGCUGG | -3.94 ± 0.16 | -2.62 ± 0.16 |
| UCCCAGCAAUAUUACGCUUC | -2.73 ± 0.19 | -2.76 ± 0.48 |
| UCCCAGCAAUAUUACGCUUG | -3.31 ± 0.15 | -2.4 ± 0.19 |
| UCCCAGCAAUAUUACGGCAA | -0.595 ± 0.1 | 0.128 ± 0.11 |
| UCCCAGCAAUAUUACGGGAG | -3.44 ± 0.14 | -2.01 ± 0.11 |
| UCCCAGCAAUAUUACGGGCA | -0.512 ± 0.082 | -0.2 ± 0.097 |
| UCCCAGCAAUAUUACGGUCA | -0.0309 ± 0.062 | 0.226 ± 0.072 |
| UCCCAGCAAUAUUACGUAUC | -3.32 ± 0.29 | -1.35 ± 0.2 |
| UCCCAGCAAUAUUACGUCUA | -2.5 ± 0.21 | -2.12 ± 0.22 |

| Sequence | self-splicing fitness (ln) (30 °C) | self-splicing fitness (ln) (37 °C) |
| --- | --- | --- |
| UCCCAGCAAUAUUACGUUCC | -2.26 ± 0.21 | -2.44 ± 0.27 |
| UCCGAGCAAUAUUACGAGAA | -1.91 ± 0.35 | -2.27 ± 0.38 |
| UCCGAGCAAUAUUACGAGAU | -3.41 ± 0.24 | -2.02 ± 0.29 |
| UCCGAGCAAUAUUACGAUUA | -1.94 ± 0.28 | -1.72 ± 0.26 |
| UCCGAGCAAUAUUACGCACA | -3.21 ± 0.22 | -0.221 ± 0.13 |
| UCCGAGCAAUAUUACGCAUG | -2.8 ± 0.32 | -2.36 ± 0.3 |
| UCCGAGCAAUAUUACGCCCA | -4.21 ± 0.36 | -2.83 ± 0.35 |
| UCCGAGCAAUAUUACGCCUC | – | -1.34 ± 0.33 |
| UCCGAGCAAUAUUACGCGAC | -2.63 ± 0.41 | -1.58 ± 0.4 |
| UCCGAGCAAUAUUACGCGGU | -3.33 ± 0.26 | -1.58 ± 0.17 |
| UCCGAGCAAUAUUACGGAAC | -2.97 ± 0.33 | – |
| UCCGAGCAAUAUUACGGAUG | -4.09 ± 0.35 | -1.77 ± 0.2 |
| UCCGAGCAAUAUUACGGCAA | -1.43 ± 0.11 | -0.233 ± 0.13 |
| UCCGAGCAAUAUUACGGCGA | -0.0162 ± 0.1 | -0.0341 ± 0.12 |
| UCCGAGCAAUAUUACGGGAG | -3.81 ± 0.22 | -2.79 ± 0.19 |
| UCCGAGCAAUAUUACGGGGA | -1.93 ± 0.15 | -0.603 ± 0.11 |
| UCCGAGCAAUAUUACGGUAA | -2.21 ± 0.18 | -1.08 ± 0.12 |
| UCCGAGCAAUAUUACGGUCC | -3.08 ± 0.24 | -3.35 ± 0.33 |
| UCCGAGCAAUAUUACGUGCG | -3.49 ± 0.43 | -2.63 ± 0.34 |
| UCCGAGCAAUAUUACGUUGG | -3.33 ± 0.21 | -1.78 ± 0.24 |
| UCCUAGCAAUAUUACGAAUG | – | -2.76 ± 0.44 |
| UCCUAGCAAUAUUACGAGAG | -3.57 ± 0.17 | -2.51 ± 0.2 |
| UCCUAGCAAUAUUACGAGUU | -3.71 ± 0.3 | -1.24 ± 0.18 |
| UCCUAGCAAUAUUACGCAAC | -2.76 ± 0.21 | -3.38 ± 0.42 |
| UCCUAGCAAUAUUACGCAAU | -2.64 ± 0.21 | -2.05 ± 0.25 |

| Sequence | self-splicing fitness (ln) (30 °C) | self-splicing fitness (ln) (37 °C) |
| --- | --- | --- |
| UCCUAGCAAUAUUACGCCAC | -1.72 ± 0.28 | -1.15 ± 0.27 |
| UCCUAGCAAUAUUACGCCUA | -2.01 ± 0.41 | – |
| UCCUAGCAAUAUUACGCGGA | -3.3 ± 0.26 | -2.51 ± 0.25 |
| UCCUAGCAAUAUUACGCGUU | -2.01 ± 0.095 | -0.94 ± 0.1 |
| UCCUAGCAAUAUUACGCUAC | -2.35 ± 0.15 | -0.883 ± 0.3 |
| UCCUAGCAAUAUUACGCUCA | – | -2.48 ± 0.42 |
| UCCUAGCAAUAUUACGCUUC | -3.48 ± 0.18 | -3.1 ± 0.23 |
| UCCUAGCAAUAUUACGGAGC | -3.26 ± 0.29 | -1.98 ± 0.18 |
| UCCUAGCAAUAUUACGGCGC | -2.21 ± 0.24 | -1.69 ± 0.23 |
| UCCUAGCAAUAUUACGGGAU | -4.1 ± 0.22 | -2.18 ± 0.17 |
| UCCUAGCAAUAUUACGUAAA | -1.84 ± 0.19 | 0.0696 ± 0.22 |
| UCCUAGCAAUAUUACGUAAG | -3.31 ± 0.24 | -2.4 ± 0.23 |
| UCCUAGCAAUAUUACGUACC | -2.36 ± 0.47 | – |
| UCCUAGCAAUAUUACGUCUU | -4.03 ± 0.23 | -2.05 ± 0.14 |
| UCCUAGCAAUAUUACGUGAC | -3.85 ± 0.2 | -3.03 ± 0.21 |
| UCCUAGCAAUAUUACGUUAC | -3.48 ± 0.25 | -2.09 ± 0.25 |
| UCCUAGCAAUAUUACGUUUC | -2.36 ± 0.4 | -3.04 ± 0.43 |
| UCGAAGCAAUAUUACGACAG | -3.08 ± 0.23 | -1.87 ± 0.31 |
| UCGAAGCAAUAUUACGACCA | -1.16 ± 0.15 | -1.09 ± 0.18 |
| UCGAAGCAAUAUUACGAGGG | -2.48 ± 0.15 | -1.62 ± 0.2 |
| UCGAAGCAAUAUUACGAGGU | -3.45 ± 0.4 | -2.03 ± 0.29 |
| UCGAAGCAAUAUUACGAGUU | -3.31 ± 0.15 | -2.04 ± 0.21 |
| UCGAAGCAAUAUUACGCAUU | -1.97 ± 0.19 | -2.46 ± 0.26 |
| UCGAAGCAAUAUUACGCGAC | -3.47 ± 0.25 | -2.2 ± 0.26 |
| UCGAAGCAAUAUUACGCGCU | -2.18 ± 0.2 | -0.209 ± 0.24 |

| Sequence | self-splicing fitness (ln) (30 °C) | self-splicing fitness (ln) (37 °C) |
| --- | --- | --- |
| UCGAAGCAAUAUUACGCGGA | -3.61 ± 0.39 | -1.35 ± 0.17 |
| UCGAAGCAAUAUUACGCUAU | -3.24 ± 0.19 | -3.36 ± 0.42 |
| UCGAAGCAAUAUUACGCUGA | -3.44 ± 0.33 | -2.31 ± 0.29 |
| UCGAAGCAAUAUUACGGAAC | -3.33 ± 0.38 | -0.421 ± 0.39 |
| UCGAAGCAAUAUUACGGAGU | -3.99 ± 0.28 | -1.03 ± 0.15 |
| UCGAAGCAAUAUUACGGCGC | -3.11 ± 0.34 | -2.04 ± 0.32 |
| UCGAAGCAAUAUUACGGGUC | -4.14 ± 0.33 | -2.54 ± 0.44 |
| UCGAAGCAAUAUUACGGUAA | -2.11 ± 0.16 | -0.334 ± 0.13 |
| UCGAAGCAAUAUUACGGUCC | -4.15 ± 0.42 | -1.95 ± 0.31 |
| UCGAAGCAAUAUUACGUAGU | -2.53 ± 0.11 | -0.666 ± 0.11 |
| UCGAAGCAAUAUUACGUCCG | -0.163 ± 0.1 | -0.412 ± 0.12 |
| UCGAAGCAAUAUUACGUCGC | -1.76 ± 0.14 | -1.86 ± 0.19 |
| UCGAAGCAAUAUUACGUUCC | -2.35 ± 0.33 | -0.433 ± 0.41 |
| UCGAAGCAAUAUUACGUUGC | -3.36 ± 0.26 | – |
| UCGCAGCAAUAUUACGAAGG | -1.85 ± 0.096 | -0.846 ± 0.12 |
| UCGCAGCAAUAUUACGAAUC | -4.04 ± 0.2 | -2.61 ± 0.2 |
| UCGCAGCAAUAUUACGACAG | -2.6 ± 0.25 | -0.246 ± 0.35 |
| UCGCAGCAAUAUUACGCAGC | – | -2.1 ± 0.45 |
| UCGCAGCAAUAUUACGCAGG | -3.59 ± 0.2 | -2.2 ± 0.19 |
| UCGCAGCAAUAUUACGCAUU | -2.57 ± 0.18 | -2.43 ± 0.21 |
| UCGCAGCAAUAUUACGCCAA | -1.37 ± 0.16 | -1.23 ± 0.22 |
| UCGCAGCAAUAUUACGGCUC | -3.21 ± 0.17 | -2.96 ± 0.35 |
| UCGCAGCAAUAUUACGGGAG | -3.59 ± 0.24 | -3.15 ± 0.23 |

— the supplement of paper PMC7877785
